Experimental data published in publication PMC3124598.

Target: TcpP-HSV (wild type, HSV epitope-tagged TcpP) (V. cholerae) (UniProt P29485)
Assay: […], in 20 mM HEPES pH 7.0, 150 mM NaCl) […]

Chain of UniProt P29485 (P29485 whole entry): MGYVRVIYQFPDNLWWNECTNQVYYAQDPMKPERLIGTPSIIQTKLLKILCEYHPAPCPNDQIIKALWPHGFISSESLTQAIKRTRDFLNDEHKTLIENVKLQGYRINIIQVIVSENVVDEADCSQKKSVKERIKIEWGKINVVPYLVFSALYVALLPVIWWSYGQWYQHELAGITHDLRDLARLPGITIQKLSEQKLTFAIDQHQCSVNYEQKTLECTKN

With “ToxR-P101L (chromosomal toxR locus) (natural protein)” the percent of wild-type levels of interaction (% of wild-type) was 15.
